± gives the uncertainty stated by the source.
Test: self-splicing fitness, log relative to wild type (ln ratio); higher = more splicing; Tetrahymena group I intron in knt gene, E. coli kanamycin selection, DiMSum; sequences stand for … in CUCUCU…GGAGGGAAAAGUUAUCAGGCAUGCACCUGGUAGCUAGUCUUUAAACCAAUAGAUUGCAUCGGUUUAAAAGGCAAGACCGUCAAAUUGCGGGAAAGGGGUCAACAGCCGUUCAGUACCAAGUCUCAGGGGAAACUUUGAGAUGGCCUUGCAAAGGGUAUGGUAAUAAGCUGACGGACAUGGUCCUAACCACGCAGCCAAGUCCUAAGUCAACAGAUCUUCUGUUGAUAUGGAUGCAGUUCACAGACUAAAUGUCGGUCGGGGAAGAUGUAUUCUUCUCAUAAGAUAUAGUCGGACCUCUCCUUAAUGGGAGCUAGCGGAUGAAGUGAUGCAACACUGGAGCCGCUGGGAACUAAUUUGUAUGCGAAAGUAUAUUGAUUAGUUUUGGAGUACUCGUGGUCG
How it was run: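 Pooled colonies went to amplicon sequencing on an Illumina HiSeq 2500 after six replicate transformations. The plates were LB agar with 100 μg/mL carbenicillin, 50 μM IPTG and 0.2% rhamnose, with or without 25 μg/mL kanamycin, incubated overnight at 37°C or 30°C. The E. coli BL21(DE3) library had all eight P1ex-region intron nucleotides randomised, the intron placed in the knt kanamycin-resistance gene on pET-22b(+). DiMSum fitness is the error-weighted combination of replicate fold changes, kanamycin against none, normalised to wild type.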

Sequence | self-splicing fitness (ln) (30 °C) | self-splicing fitness (ln) (37 °C)
UGUGAGCAAUAUUACGCGAA | -4.12 ± 0.29 | -2.54 ± 0.18
UGUGAGCAAUAUUACGCUAU |  | -1.9 ± 0.3
UGUGAGCAAUAUUACGCUGG | -2.49 ± 0.28 | -2.71 ± 0.37
UGUGAGCAAUAUUACGGAGA | -3.34 ± 0.28 | -2.29 ± 0.31
UGUGAGCAAUAUUACGGCUA | -0.645 ± 0.13 | -0.508 ± 0.15
UGUGAGCAAUAUUACGGGGC | -3.14 ± 0.39 | -2.25 ± 0.33
UGUGAGCAAUAUUACGGUCA | -0.959 ± 0.056 | -0.333 ± 0.069
UGUGAGCAAUAUUACGGUUA | -2.47 ± 0.2 | -0.332 ± 0.16
UGUGAGCAAUAUUACGUAGU | -2.87 ± 0.24 | -3.06 ± 0.35
UGUGAGCAAUAUUACGUAUU | -3.12 ± 0.16 | -2.63 ± 0.26
UGUGAGCAAUAUUACGUUAC | -3.75 ± 0.37 | -2.6 ± 0.38
UGUGAGCAAUAUUACGUUCG | -3.41 ± 0.22 | -1.32 ± 0.15
UGUUAGCAAUAUUACGAAAG | -2.64 ± 0.14 | -2.73 ± 0.25
UGUUAGCAAUAUUACGACGC | -1.59 ± 0.2 | -1.47 ± 0.32
UGUUAGCAAUAUUACGAGAG | -3.33 ± 0.33 | -3.15 ± 0.27
UGUUAGCAAUAUUACGAGUG | -0.0674 ± 0.16 | -0.336 ± 0.18
UGUUAGCAAUAUUACGAUCC | -0.915 ± 0.34 | 
UGUUAGCAAUAUUACGAUUA | -0.127 ± 0.093 | 0.424 ± 0.11
UGUUAGCAAUAUUACGCACG | -0.922 ± 0.11 | -0.377 ± 0.12
UGUUAGCAAUAUUACGCAGG | -3.96 ± 0.35 | -2.96 ± 0.25
UGUUAGCAAUAUUACGCCGC | -3.34 ± 0.45 | 
UGUUAGCAAUAUUACGCGAC | -3.75 ± 0.4 | -1.59 ± 0.5
UGUUAGCAAUAUUACGCGUG | -0.492 ± 0.11 | -0.61 ± 0.099
UGUUAGCAAUAUUACGCUAU | -3.53 ± 0.49 | -1.29 ± 0.32
UGUUAGCAAUAUUACGCUUG | -2.03 ± 0.14 | -0.556 ± 0.12
